Values quoted from earlier work, collected in article PMC12634839.

Target: FAM19A5 (Homo sapiens) (UniProt Q7Z5A7)
Experiment: SPR

UniProt Q7Z5A7, sequence (Q7Z5A7 44-132): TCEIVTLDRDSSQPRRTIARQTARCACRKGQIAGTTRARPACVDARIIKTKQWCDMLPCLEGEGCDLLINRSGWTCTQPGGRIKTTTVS

## LRRC4B 453-576 (from UniProt Q9NT99)
  Kd: 0.032 nM
